According to publication PMC6211770, “Structure-guided disruption of the pseudopilus tip complex inhibits the Type II secretion in Pseudomonas aeruginosa” (PLoS Pathogens, 2018):

Target: T1, XcpX (29–313), soluble form (P. aeruginosa, UniProt Q00518 29-313)
T1 construct: minor pseudopilin XcpX (GspK) of Pseudomonas aeruginosa, soluble form, residues 29-313; buffers with XcpX held 1 mM CaCl2; The XcpVWX complex was digested in situ with chymotrypsin before crystallisation; also called XcpX^(GspK); GspK; source: E. coli BL21 (DE3), purified (Ni2+-NTA, TEV digestion, Superdex 75); not shown: thioredoxin (Trx), N-terminal, cleaved
T1 sequence: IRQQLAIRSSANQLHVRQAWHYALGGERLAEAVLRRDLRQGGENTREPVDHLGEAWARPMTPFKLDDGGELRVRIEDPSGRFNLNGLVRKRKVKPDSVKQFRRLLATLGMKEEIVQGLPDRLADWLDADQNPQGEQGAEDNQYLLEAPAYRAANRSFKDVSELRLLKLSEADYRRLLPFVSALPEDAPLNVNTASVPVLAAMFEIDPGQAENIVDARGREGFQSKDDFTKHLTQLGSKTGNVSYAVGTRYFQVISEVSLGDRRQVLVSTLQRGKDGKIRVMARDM
Test: SAXS with inline SEC; XcpUVWX complex at 6.15 mg/ml in 25 mM HEPES pH 7.0, 150 mM NaCl, 5% glycerol, 2 mM DTT
Details: both partners purified

B1: XcpV (28–129), soluble form (domain or fragment)
chain: SASARSLQNASRLEDKTLAMWIADNRLNELQLEQTPPSSGRNQGELEFAGRRWEWRTQVDSTAEQDMRRVIVWVAAKPLGRERGSIEERAAARLVGFLGSQP
notes: minor pseudopilin XcpV (GspI) of Pseudomonas aeruginosa, soluble form, residues 28-129; The XcpVWX complex was digested in situ with chymotrypsin before crystallisation; the chains in PDB 5VTM may be shorter; also called XcpV^(GspI); GspI; source: E. coli BL21 (DE3), purified (Ni2+-NTA, TEV digestion, Superdex 75); not shown: thioredoxin (Trx), N-terminal, cleaved
binding result: binds
